Measured values as given in US20250313627A1 (FUSE BIOTHERAPEUTICS, published 2025).
Numbering of substitutions follows the chain as printed. Where two headings read alike, the source gives them in different places.

Assays:
[1] = molecular target: T1, human ROR1 (Receptor Tyrosine Kinase-Like Orphan Receptor 1) on the cell surface (human, UniProt Q01973 30-937); assay: flow cytometry, B16-F10 cells expressing human ROR1 (high density)
T1 construct: whole, on cells; engineered into B16-F10 (high density) and LS174T (low density) cells; also called B16-F10-ROR1-H; LS174T-ROR1-L
Method: (§1) As shown in the tables below, mouse B16-F10 melanoma (Tables 9A-9F) or LS174T human colorectal adenocarcinoma (Tables 9G-9H) cells genetically engineered to express human ROR1 at high and low densities, respectively, were stained for flow cytometric analysis with 100 nM of humanized variants of the ROR1 specific VHHs, 5A1 or 2A11 in either a VHH-Fc format or the Ac13 format shown in FIG. 1. Cells were analyzed on a flow cytometer after the primary test article was fluorescently tagged with a goat anti human IgG-Fc specific PE secondary antibody. The positive control used was PE conjugated anti-human ROR1 clone 2A2. Negative controls included a PE labeled mouse IgG Ab, the secondary antibody only, the combination of a Hen Egg Lysozyme (HEL) specific antibody plus goat anti human IgG-Fc specific PE and Fluorescence Minus One (FMO). Other controls included the non-humanized version of 5A1-Fc (FUSE179), 2A11-Fc (FUSE112) and 5A1-Ac13 (FUSE488). Humanized variants were generated using computational design (FUSE489, FUSE497-498, FUSE563, FUSE569-570, and BI-HU9-VHH11-33), a yeast display library in which mutations were inserted into the Vernier zone residues of human framework indicated in GenBank accession number M99660 (FUSE524-525, FUSE589, FUSE597-598, FUSE537, FUSE661-662, BI-HU9-HK and BI-HU9-HK-1), and a second yeast display library in which mutations were inserted into the Vernier zone residues of human framework indicated in GenBank accession number AWH66715 and amino acid position 103 within CDR3 (FUSE559, FUSE590-596, BI-HU9-VH9-1, FUSE654-655 and FUSE661-662. Affinity matured variants of FUSE559 were also generated using computational design (F22158101-21; Table 9H).

[2] = molecular target: T1, human ROR1 (Receptor Tyrosine …); assay: flow cytometry on MDA-MB-231 ROR1 low cells (about 17,000 ROR1 per cell), secondary antibody to the IgG1 Fc
Method: (§2) Binding of 2A11 (black line), 5A1 (dark grey line) and VHH8 (medium grey line) were tested in TCE format 12A. The commercial ROR1 specific Ab reported to bind the ROR1-Ig domain 2A2 (light grey line), served as the positive control and anti-HEL (dotted black line) served as the negative control. To better visualize binding of each test article to the three cells lines, we plotted MFI on the y-axis for each test article for HEK-293 cells (negative control; FIG. 4I), HEK-293 cells transfected with full length human ROR1 (FIG. 4J) and HEK-293 cells transfected with the ROR1 Ig domain linked to the cell surface via the GPI linker from CD59 (FIG. 4K).
(§3) Adherent target cells were collected by brief TrypLE treatment while suspension cells were directly collected. Collected cells were washed once with PBS by centrifugation at 500×g for 5 minutes at room temperature and added to V-bottom 96-well plate (200,000-300,000 cells per well). To prepared Live/Dead fixable red, one vial of powder was dissolved into 50 uL of DMSO to make stock solution and then diluted 1 uL of stock Live/Dead fixable red in 1 mL of PBS to prepare the working solution. 100 uL of Live/Dead fixable red working buffer was then added to the cell in the V-bottom 96-well plate (200,000-300,000 cells per well) and incubated for 15 minutes at room temperature. After the 15-minute incubation, the cells were washed twice with PBS by centrifugation at 500 g for 5 minutes at room temperature. The cells were then cultured with antibodies at different concentrations in 100 uL of Biolegend staining buffer at 4° C. for 45 minutes. After the 45-minute incubation with primary antibody, the cells were washed with PBS by centrifugation at 500 g for 5 minutes at room temperature. The cells were then cultured with PE-Cy7-conjugated mouse-anti-human IgG secondary antibody in Biolegend staining buffer at 4° C. for 45 minutes. […] The samples were then analyzed on Cytek flow cytometer.

[3] = molecular target: T1, human ROR1 (Receptor Tyrosine …); assay: flow cytometry on MDA-MB-231 ROR1 high cells (about 500,000 ROR1 per cell), secondary antibody to the IgG1 Fc
Method: as §2, §3

[4] = molecular target: T1, human ROR1 (Receptor Tyrosine …); assay: flow cytometry on MDA-MB-231 ROR1 normal cells (about 35,000 ROR1 per cell), secondary antibody to the IgG1 Fc
Method: as §2, §3

[5] = molecular target: T1, human ROR1 (Receptor Tyrosine …); assay: flow cytometry on MDA-MB-231 ROR1 super high cells (about 2,000,000 ROR1 per cell), secondary antibody to the IgG1 Fc
Method: as §2, §3

[6] = molecular target: T2, recombinant His tagged human ROR1 (human, UniProt Q01973 30-403, limits assumed); assay: BLI (Octet), FUSE protein loaded on the biosensor, His tagged ROR1 in solution; column 'kdis(1/s)'
T2 construct: Analyte in the BLI assay; also called Human ROR1-His; recombinant ROR1
Method: (§4) As shown in FIGS. 5A-5D, the binding affinities (KD) of TCEs for ROR1 were assessed. We examined the magnitude by which several TCEs and mutants thereof bind to recombinant ROR1. Kinetic binding graphs were generated via Bio-Layer Interferometry (BLI) using an Octet system. For each TCE, the biosensor tips were coated with FUSE proteins at 15 μg/ml and probed with either recombinant His tagged ROR1 at concentrations ranging from 100 pM to 10 μM. […] The binding affinity (KD), on rate (k-on) and off rate (k-dis), are summarized for ROR1 in FIG. 5D.
(§5) Antibodies were prepared in 1×PBS with 0.02% Tween-20 with the final concentration of 15 ug/ml. Human ROR1-His or CD3e-His protein were also prepared, and serial diluted (4-fold dilution ranging from 400 nM to 0.098 nM) in 1×PBS with 0.02% Tween-20. The biosensors were pre-moistened in 200 uL of 1×PBS with 0.02% Tween-20 for 10 minutes. Meanwhile, Octet BLI system (ForteBio) was prewarmed for 30 minutes and the flow rate was set to 1000 rpm. The biosensors (Anti-hIgG Fc Capture biosensor) were soaked in 250 uL of 1×PBS with 0.02% Tween-20 for 60 seconds at 30° C. to get an initial baseline reading. After the 60-second baseline reading, the biosensors were exposed to testing antibody for 300 seconds at 30° C. for the association between antibody and the biosensors (coupling antibody with biosensor). The biosensors with antibody were then exposed to human ROR1 or CD3e in 250 uL of 1×PBS with 0.02% Tween-20 at 30° C. for 300 seconds for the association reaction between antibody and human ROR1 or CD3e (association curve). After 300-second association reaction between antibody and antigen, the biosensors with antibody and antigen were then exposed to 250 uL of 1×PBS with 0.02% Tween-20 at 30° C. for 300 seconds for the dissociation reaction between antibody and […]. The binding affinity was calculated by the built-in data fitting algorithm.

[7] = molecular target: T2, recombinant His tagged human ROR1; assay: BLI (Octet), FUSE protein loaded on the biosensor, His tagged ROR1 in solution
Method: as §4, §5

[8] = molecular target: T1, human ROR1 (Receptor Tyrosine …); assay: flow cytometry, B16-F10 cells expressing human ROR1 (high density); remark: listed apart in the source
Method: as §1

[9] = molecular target: T1, human ROR1 (Receptor Tyrosine …); assay: as above; remark: listed apart in the source
Method: as §1

[10] = molecular target: T1, human ROR1 (Receptor Tyrosine …); assay: flow cytometry on B16-F10 cells engineered to express human ROR1, secondary antibody to the IgG1 Fc
Method: As shown in FIG. 15 the apparent binding affinity (EC50-binding) of the ROR1 specific VHH-Fc incorporating either the non humanized VHH clone 5A1 (FUSE179; black circle), the humanized clone 5A1-FA9-HK1 (FUSE559; black square) or the humanized clone 5A1-HK1 (FUSE524; black triangle) was calculated. Shown is a non-linear x-y plot of binding to B16-F10 cell engineered to express human ROR1 relative to the concentration of test article used for staining. A Hen Egg Lysozyme (HEL)-specific antibody was used as the negative isotype control. Binding was measured via flow cytometry using a fluorescently labeled secondary antibody specific for the Fc domain of IgG1. A summary table of EC50s and maximum MFI is shown beneath under the graph.

T2 sequence (Q01973 30-403 limits assumed): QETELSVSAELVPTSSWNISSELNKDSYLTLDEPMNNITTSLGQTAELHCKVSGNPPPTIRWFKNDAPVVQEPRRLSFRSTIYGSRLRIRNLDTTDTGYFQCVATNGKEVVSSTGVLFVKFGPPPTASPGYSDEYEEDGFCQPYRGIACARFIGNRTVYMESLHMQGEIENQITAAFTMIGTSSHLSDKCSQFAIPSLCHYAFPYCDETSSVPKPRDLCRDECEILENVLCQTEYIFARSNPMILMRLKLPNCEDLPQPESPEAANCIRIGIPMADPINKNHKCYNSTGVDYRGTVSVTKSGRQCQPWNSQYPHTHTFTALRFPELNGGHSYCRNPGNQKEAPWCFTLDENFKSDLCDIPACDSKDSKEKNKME
T1 sequence (Q01973 30-937): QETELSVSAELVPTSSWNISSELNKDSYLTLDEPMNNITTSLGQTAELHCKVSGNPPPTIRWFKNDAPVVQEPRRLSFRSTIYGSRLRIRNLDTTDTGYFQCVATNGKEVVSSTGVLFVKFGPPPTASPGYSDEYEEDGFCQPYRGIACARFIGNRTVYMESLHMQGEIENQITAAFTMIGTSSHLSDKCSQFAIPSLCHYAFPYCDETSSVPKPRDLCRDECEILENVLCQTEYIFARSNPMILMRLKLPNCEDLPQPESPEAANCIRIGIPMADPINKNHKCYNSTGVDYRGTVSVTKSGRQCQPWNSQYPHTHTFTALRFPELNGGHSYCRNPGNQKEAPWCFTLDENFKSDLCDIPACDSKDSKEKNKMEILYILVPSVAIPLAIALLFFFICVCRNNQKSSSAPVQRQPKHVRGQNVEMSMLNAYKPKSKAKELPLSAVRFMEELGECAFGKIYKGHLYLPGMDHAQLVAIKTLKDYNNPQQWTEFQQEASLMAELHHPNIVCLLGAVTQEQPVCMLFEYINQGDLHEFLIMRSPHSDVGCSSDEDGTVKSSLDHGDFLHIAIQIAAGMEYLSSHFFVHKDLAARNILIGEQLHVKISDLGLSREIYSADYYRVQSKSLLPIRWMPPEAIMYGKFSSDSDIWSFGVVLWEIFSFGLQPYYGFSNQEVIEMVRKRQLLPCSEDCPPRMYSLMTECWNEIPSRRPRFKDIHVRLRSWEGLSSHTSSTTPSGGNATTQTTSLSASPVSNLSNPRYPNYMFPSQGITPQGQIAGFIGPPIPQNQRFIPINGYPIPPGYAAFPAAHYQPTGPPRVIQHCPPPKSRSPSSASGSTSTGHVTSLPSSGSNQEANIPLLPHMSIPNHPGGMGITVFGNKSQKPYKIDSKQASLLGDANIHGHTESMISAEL

B1: FUSE-563 (h5A1-FA11 Fc) (Fc fusion)
chain: EVQLLESGGGLVQPGGSLKLSCTASGYTNRLKCMGWFRQAPGKEREEIATISTGTGNTYYADSVKGRFTISQDRSKNTLYLQMNSLRAEDTAVYYCAADVRPDGTTCHYNSWGQGTLVTVSS
notes: VHH-Fc format; not shown: Fc of the VHH-Fc format
**Q.** B1 was tested. Which MFI [1] did it give?
**A.** 388

B2: FUSE-211 (bispecific antibody, human IgG1, lambda, L234A L235A)
chain: QVQLQESGGGSVPAGGSLRLSCAASGSTYSANCMGWFRQAPGKEREEVASMSIRSGRTYYSDSVKGRFTISQDGSKNTLYLQLNSLKAEDTALYYCAAAYGGSRCVYNYRGQGTQVTVSSGGGGSGGGGSGGGGSQVQLQESGGGSVPAGGSLRLSCAASGSTYSANCMGWFRQAPGKEREEVASMSIRSGRTYYSDSVKGRFTISQDGSKNTLYLQLNSLKAEDTALYYCAAAYGGSRCVYNYRGQGTQVTVSSEPKSSDKTHTCPPCPAPEAAGGPSVFLFPPKPKDTLMISRTPEVTCVVVDVSHEDPEVKFNWYVDGVEVHNAKTKPREEQYNSTYRVVSVLTVLHQDWLNGKEYKCKVSNKALPAPIEKTISKAKGQPREPQVYTLPPSREEMTKNQVSLSCAVKGFYPSDIAVEWESNGQPENNYKTTPPVLDSDGSFFLVSKLTVDKSRWQQGNVFSCSVMHEALHNRFTQKSLSLSPGK
heavy: EVQLVESGGGLVQPGGSLRLSCAASGFTFSTYAMNWVRQAPGKGLEWVARIRSKYNNYATYYADSVKDRFTISRDDSKNTLYLQMNSLRAEDTAVYYCARHGNFGNSYVSWFAYWGQGTMVTVSSASTKGPSVFPLAPSSKSTSGGTAALGCLVKDYFPEPVTVSWNSGALTSGVHTFPAVLQSSGLYSLSSVVTVPSSSLGTQTYICNVNHKPSNTKVDKKVEPKSCDKTHTCPPCPAPEAAGGPSVFLFPPKPKDTLMISRTPEVTCVVVDVSHEDPEVKFNWYVDGVEVHNAKTKPREEQYNSTYRVVSVLTVLHQDWLNGKEYKCKVSNKALPAPIEKTISKAKGQPREPQVYTLPPSREEMTKNQVSLWCLVKGFYPSDIAVEWESNGQPENNYKTTPPVLDSDGSFFLYSKLTVDKSRWQQGNVFSCSVMHEALHNHYTQKSLSLSPGK
light: QAVVTQEPSLTVSPGGTVTLTCRSSTGAVTTSNYANWVQQKPGQAPRGLIGGTNKRAPGTPARFSGSLLGGKAALTLSGVQPEDEAEYYCALWYSNLWVFGGGTKLTVLGQPKAAPSVTLFPPSSEELQANKATLVCLISDFYPGAVTVAWKADSSPVKAGVETTTPSKQSNNKYAASSYLSLTPEQWKSHRSYSCQVTHEGSTVEKTVAPTECS
notes: Hole chain: 2A11-linker-2A11-Fc; knob chain: anti-CD3 Fab heavy chain-Fc; anti-CD3 light chain; also called format 11A incorporating 2A11
**Q.** Which results are given for B2?
**A.** EC50 [2]: 0.4 nM; EC50 [3]: 0.55 nM; EC50 [4]: 0.45 nM; EC50 [5]: 0.19 nM; koff [6]: 0.00229 s⁻¹; Kd [7]: 17 nM; kon [7]: 135000 M⁻¹ s⁻¹

B3: FUSE-570 (h5A1-FA18 Fc) (Fc fusion)
chain: QVQLVESGGGLVQPGGSLRLSCSASGYTNRLKCMGWFRQAPGKEREEIATISSGTGNTYYADSVKGRFTFSRDNSKNTLYLQMNSLRAEDTGMYYCAADVRPDGTTCHYNSGGQGTQVTVSS
notes: as for B1
**Q.** Which MFI [1] does the source give for B3 here?
**A.** 583

B4: FUSE-597 (h5A1-HK2 Fc) (Fc fusion)
chain: EVQLLESGGGLVQPGGSLRLSCAASGYTNRLKCMGWFRQAPGKERELASISTGTGNTYYADSVKGRFTISRDGSKNTLYLQMNSLRAEDTAVYYCAADVRPDGTTCHYNSRGQGTLVTVSS
notes: as for B1
**Q.** Which MFI [8] does the source give for B4 here?
**A.** 10100

B5: FUSE-569 (h5A1-FA17 Fc) (Fc fusion)
chain: B4 chain with E1Q, L5V, A23S, G73N, E88D, R111W, L116Q
notes: as for B1
**Q.** For B5, which MFI [1] is on record?
**A.** 590

B6: FUSE-598 (h5A1-HK6 Fc) (Fc fusion)
chain: B4 chain with R71Q
notes: as for B1
**Q.** With B6 as the binder, how does the MFI [8] read?
**A.** 9560

B7: FUSE-524 (h5A1-HK1_Fc) (Fc fusion)
chain: B4 chain with G73N, R86K
notes: VHH-Fc format; also called humanized clone 5A1-HK1; 5A1-H1; not shown: Fc of the VHH-Fc format
**Q.** What does the source list for B7?
**A.** MFI [9]: 6470; EC50 [10]: 2.74 nM; Max MFI [10]: 7080 MFI
